Experimental data taken from patent US20240199761A1 (AstraZeneca / MedImmune, published 2024).

What was measured:
[1] = target: T1, recombinant mouse PAD2 (biotinylated) (mouse, UniProt Q08642 1-673, enzymatically biotinylated on an Avi-tag); test: SPR (Biacore), biotinylated PAD2 on CM5/C1-streptavidin, Fab flowed over; average
T1 construct: not shown: Avi-tag (and any other tags); said to be at the C-terminus in this earlier assay

[2] = target: T2, recombinant human PAD2 (biotinylated) (human, UniProt Q9Y2J8 1-665, enzymatically biotinylated on an Avi-tag); test: as above
T2 construct: not shown: Avi-tag (and any other tags); said to be at the C-terminus in this earlier assay
T2 sequence (Q9Y2J8 whole entry): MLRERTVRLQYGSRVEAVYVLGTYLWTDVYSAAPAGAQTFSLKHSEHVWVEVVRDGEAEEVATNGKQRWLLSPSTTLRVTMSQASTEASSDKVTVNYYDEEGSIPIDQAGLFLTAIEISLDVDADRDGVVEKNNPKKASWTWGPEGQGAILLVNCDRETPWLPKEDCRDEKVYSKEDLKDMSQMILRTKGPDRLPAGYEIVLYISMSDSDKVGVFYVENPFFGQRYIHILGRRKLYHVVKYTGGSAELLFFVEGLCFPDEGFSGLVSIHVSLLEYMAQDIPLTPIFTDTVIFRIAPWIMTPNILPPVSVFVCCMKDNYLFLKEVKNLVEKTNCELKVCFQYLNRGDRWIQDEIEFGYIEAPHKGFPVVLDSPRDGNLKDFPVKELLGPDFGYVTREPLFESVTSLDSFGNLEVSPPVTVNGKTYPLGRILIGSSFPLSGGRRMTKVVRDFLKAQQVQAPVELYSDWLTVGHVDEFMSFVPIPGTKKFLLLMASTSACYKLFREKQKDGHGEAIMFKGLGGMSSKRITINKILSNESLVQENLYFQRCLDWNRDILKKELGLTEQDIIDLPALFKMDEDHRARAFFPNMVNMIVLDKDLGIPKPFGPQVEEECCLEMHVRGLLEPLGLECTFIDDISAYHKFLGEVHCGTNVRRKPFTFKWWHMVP

[3] = target: T3, huFcRn (human, UniProt P55899 24-297; P61769 21-119, limits assumed); test: huFcRn affinity chromatography, pH gradient elution
T3 construct: also called human neonatal Fc receptor
T3 sequence (P55899 24-297 limits assumed, chain 1 of 2): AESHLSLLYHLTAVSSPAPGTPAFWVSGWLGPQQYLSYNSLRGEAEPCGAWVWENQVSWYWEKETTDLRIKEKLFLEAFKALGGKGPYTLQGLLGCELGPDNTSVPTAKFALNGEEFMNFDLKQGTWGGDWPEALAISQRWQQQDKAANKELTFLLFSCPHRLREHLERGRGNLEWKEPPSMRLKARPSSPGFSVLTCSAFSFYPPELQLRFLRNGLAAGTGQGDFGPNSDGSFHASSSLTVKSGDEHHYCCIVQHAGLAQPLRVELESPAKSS
T3 sequence (P61769 21-119 limits assumed, chain 2 of 2): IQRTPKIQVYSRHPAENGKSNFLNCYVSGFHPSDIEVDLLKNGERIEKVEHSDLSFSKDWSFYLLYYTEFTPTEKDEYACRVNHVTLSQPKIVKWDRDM

[4] = target: T4, recombinant human PAD2 (human, UniProt Q9Y2J8 1-665, enzymatically biotinylated on an Avi-tag); test: SPR (Biacore 8K), biotinylated PAD2 on streptavidin chip, Fab flowed over
T4 construct: Recombinant, biotinylated on an Avi-tag and captured on streptavidin; also called peptidyl arginine deiminase 2
T4 sequence (Q9Y2J8 whole entry): as the sequence (Q9Y2J8 whole entry) above

[5] = target: T5, recombinant mouse PAD2 (mouse, UniProt Q08642 1-673, enzymatically biotinylated on an Avi-tag); test: as above
T5 construct: Recombinant, biotinylated on an Avi-tag
T5 sequence (Q08642 whole entry): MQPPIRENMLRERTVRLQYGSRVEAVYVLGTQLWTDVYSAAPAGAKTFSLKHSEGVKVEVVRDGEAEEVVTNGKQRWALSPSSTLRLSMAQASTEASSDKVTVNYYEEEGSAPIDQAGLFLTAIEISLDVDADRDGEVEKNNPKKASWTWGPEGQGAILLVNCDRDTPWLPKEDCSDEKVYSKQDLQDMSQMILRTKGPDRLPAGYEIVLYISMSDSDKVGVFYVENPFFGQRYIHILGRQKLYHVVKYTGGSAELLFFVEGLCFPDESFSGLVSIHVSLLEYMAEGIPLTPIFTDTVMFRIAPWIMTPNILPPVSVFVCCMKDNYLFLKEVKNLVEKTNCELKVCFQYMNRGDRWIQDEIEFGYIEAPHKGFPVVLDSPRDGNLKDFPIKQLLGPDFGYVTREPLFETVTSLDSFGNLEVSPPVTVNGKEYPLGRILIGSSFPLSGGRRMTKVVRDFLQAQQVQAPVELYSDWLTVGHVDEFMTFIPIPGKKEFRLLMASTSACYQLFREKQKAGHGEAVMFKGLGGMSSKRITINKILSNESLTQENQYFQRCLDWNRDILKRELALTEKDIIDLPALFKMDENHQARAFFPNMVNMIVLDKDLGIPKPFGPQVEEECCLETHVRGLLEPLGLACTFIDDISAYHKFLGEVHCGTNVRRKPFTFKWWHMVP

T1 sequence (Q08642 whole entry): as above

Row | Binder | Kd [2] [nM] | koff [2] [s⁻¹] | kon [2] [M⁻¹ s⁻¹] | Kd [4] [nM] | further results
1 | PAD40175 hIgG1 ngl-2 (Fab, V domains shown, Anti-PAD2; tested as Fab) VH: not shown VL: QAVLTQPSSVSVAPGKTATITCGGDNIGSKSVHWYQQKPGQAPLLVIFYDTDRPSGVPERFSGSNSGNTATLTISRVEAGDEADYYCQVWDSNGDHYVFGTGTKLTVL | 6.73 | 0.000629 | 93000 | – | Kd [1]: 2.35 nM; koff [1]: 0.000288 s⁻¹; kon [1]: 123000 M⁻¹ s⁻¹
2 | Clone 09 (Bis3, TM-YTE; Fab anti-PAD4, scFv anti-PAD2) (bispecific antibody, human IgG1, lambda, Bivalent bispecific IgG-HC-scFv; also called PAD240009) heavy: not shown light: QSALTQPRSVSGSPGQSVTISCTGTSGDVGRYSHVSWYQQHPGKAPKLIIYNVYERPSGVPDRFSGSKSGNTASLTISGLQAEDEADYYCSSHSRSSTPVLFGGGTKLTVLGQPKAAPSVTLFPPSSEELQANKATLVCLISDFYPGAVTVAWKADSSPVKAGVETTTPSKQSNNKYAASSYLSLTPEQWKSHRSYSCQVTHEGSTVEKTVAPTECS | – | – | – | – | HPLC retention [3]: 23.3 min; Relative retention [3]: 0.828
3 | Clone 10 (Bis3, TM-YTE; Fab anti-PAD2, scFv anti-PAD4) (bispecific antibody, human IgG1, lambda, Bivalent bispecific IgG-HC-scFv; also called PAD240010) heavy: not shown light: SYVLTQPPSVSVSPGQTASITCSGDKVGDKYVSWYQQKPGQSPVLVIYQDSQRPSGIPERFSGSNSGNTATLTISGTQAMDEADYYCQTWAPDVLLFGSGTKVTVLGQPKAAPSVTLFPPSSEELQANKATLVCLISDFYPGAVTVAWKADSSPVKAGVETTTPSKQSNNKYAASSYLSLTPEQWKSHRSYSCQVTHEGSTVEKTVAPTECS | – | – | – | – | HPLC retention [3]: 22.8 min; Relative retention [3]: 0.753
4 | 141LO0035 hIgG1 pgl-4 (Germlined) Clone 22 (Fab, V domains shown, Anti-PAD2 lead; tested here as Fab) VH: not shown VL: SYVLTQPPSVSVSPGQTASITCSGDKVGDKYVSWYQQKPGQSPVLVIYQDSQRPSGIPERFSGSNSGNTATLTISGTQAMDEADYYCQTWAPDVLLFGSGTKVTVL | 0.218 | 0.000221 | 1.01e+06 | – | Kd [1]: 0.794 nM; koff [1]: 0.000766 s⁻¹; kon [1]: 971000 M⁻¹ s⁻¹
5 | 141LO0035 hIgG1 pgl-4 (Clone 22, anti-PAD2) Fab (Fab, V domains shown, Tested as Fab) VH: not shown VL: SYVLTQPPSVSVSPGQTASITCSGDKVGDKYVSWYQQKPGQSPVLVIYQDSQRPSGIPERFSGSNSGNTATLTISGTQAMDEADYYCQTWAPDVLLFGSGTKVTVL | – | – | – | 0.218 | Kd [5]: 0.794 nM
6 | 141LO0039 hIgG1 pgl-4 (Germlined) (Fab, V domains shown, Anti-PAD2; tested as Fab) VH: not shown VL: SYVLTQPPSVSVSPGQTASITCSGDKVGDKYVSWYQQKPGQSPVLVIYQDSQRPSGIPERFSGSNSGNTATLTISGTQAMDEADYYCHTYAEDEYVFGSGTKVTVL | 3.9 | 0.00245 | 629000 | – | Kd [1]: 17.8 nM; koff [1]: 0.0125 s⁻¹; kon [1]: 722000 M⁻¹ s⁻¹
7 | 141LO0030 hIgG1 pgl-4 (anti-PAD2) Fab (Fab, V domains shown, Tested as Fab) VH: not shown VL: SYVLTQPPSVSVSPGQTASITCSGDKVGDKYVSWYQQKPGQSPVLVIYQDSQRPSGIPERFSGSNSGNTATLTISGTQAMDEADYYCQTWYDDALTFGSGTKVTVL | – | – | – | 2.14 | Kd [5]: 13.2 nM
8 | 141LO0039 hIgG1 pgl-4 (anti-PAD2) Fab (Fab, V domains shown, Tested as Fab) VH: not shown VL: SYVLTQPPSVSVSPGQTASITCSGDKVGDKYVSWYQQKPGQSPVLVIYQDSQRPSGIPERFSGSNSGNTATLTISGTQAMDEADYYCHTYAEDEYVFGSGTKVTVL | – | – | – | 3.9 | Kd [5]: 17.8 nM
9 | 141LO0035 hIgG1 ngl-2 (anti-PAD2) Fab (Fab, V domains shown, Tested as Fab) VH: not shown VL: SYVLTQPPSVSVSPGQTASITCSGDKVGDKYVSWYQQKPGQAPVLVMYQDSQRPSGIPERISGSNSGNTATLTISGTQAVDEAEYYCQTWAPDVLLFGSGTKVTVL | – | – | – | 0.185 | Kd [5]: 0.571 nM
10 | 141LO0030 hIgG1 pgl-4 (Germlined) (Fab, V domains shown, Anti-PAD2; tested as Fab) VH: not shown VL: SYVLTQPPSVSVSPGQTASITCSGDKVGDKYVSWYQQKPGQSPVLVIYQDSQRPSGIPERFSGSNSGNTATLTISGTQAMDEADYYCQTWYDDALTFGSGTKVTVL | 2.14 | 0.00101 | 474000 | – | Kd [1]: 13.2 nM; koff [1]: 0.00484 s⁻¹; kon [1]: 378000 M⁻¹ s⁻¹
11 | PAD40141 hIgG1 ngl-2 (Parent) (Fab, V domains shown, Anti-PAD2; tested as Fab) VH: not shown VL: SYVLTQPPSVSVSPGQTASITCSGDKVGDKYVSWYQQKPGQAPVLVMYQDSQRPSGIPERISGSNSGNTATLTISGTQAVDEAEYYCQTWDSNEYVFGSGTKVTVL | 261 | 0.111 | 445000 | – | –
12 | PAD40141 hIgG1 ngl-2 (anti-PAD2, parent) Fab (Fab, V domains shown, Tested as Fab) VH: not shown VL: SYVLTQPPSVSVSPGQTASITCSGDKVGDKYVSWYQQKPGQAPVLVMYQDSQRPSGIPERISGSNSGNTATLTISGTQAVDEAEYYCQTWDSNEYVFGSGTKVTVL | – | – | – | 261 | –
13 | 141LO0039 hIgG1 ngl-2 (Fab, V domains shown, Anti-PAD2; tested as Fab) VH: not shown VL: SYVLTQPPSVSVSPGQTASITCSGDKVGDKYVSWYQQKPGQAPVLVMYQDSQRPSGIPERISGSNSGNTATLTISGTQAVDEAEYYCHTYAEDEYVFGSGTKVTVL | 1.87 | 0.00157 | 840000 | – | –
14 | 141LO0002 hIgG1 pgl-3 (anti-PAD2) Fab (Fab, V domains shown, Tested as Fab) VH: not shown VL: SYVLTQPPSVSVSPGQTASITCSGDKVGDKYVSWYQQKPGQSPVLVIYQDSQRPSGIPERFSGSNSGNTATLTISGTQAMDEADYYCEVGVDYEYVFGSGTKVTVL | – | – | – | 3.31 | Kd [5]: 33.8 nM
15 | 141LO0002 hIgG1 pgl-3 (Germlined) (Fab, V domains shown, Anti-PAD2; tested as Fab) VH: not shown VL: SYVLTQPPSVSVSPGQTASITCSGDKVGDKYVSWYQQKPGQSPVLVIYQDSQRPSGIPERFSGSNSGNTATLTISGTQAMDEADYYCEVGVDYEYVFGSGTKVTVL | 3.31 | 0.0035 | 1.07e+06 | – | Kd [1]: 33.8 nM; koff [1]: 0.026 s⁻¹; kon [1]: 777000 M⁻¹ s⁻¹
16 | 141LO0002 hIgG1 pgl-4 (Germlined) (Fab, V domains shown) VH: not shown VL: SYVLTQPPSVSVSPGQTASITCSGDKVGDKYVSWYQQKPGQSPVLVIYQDSQRPSGIPERFSGSNSGNTATLTISGTQAMDEADYYCEVGVDYEYVFGSGTKVTVL | 2.78 | 0.00314 | 1.13e+06 | – | Kd [1]: 38.5 nM; koff [1]: 0.0256 s⁻¹; kon [1]: 692000 M⁻¹ s⁻¹
17 | 141LO0035 hIgG1 ngl-2 (Fab, V domains shown, Anti-PAD2; tested as Fab) VH: not shown VL: SYVLTQPPSVSVSPGQTASITCSGDKVGDKYVSWYQQKPGQAPVLVMYQDSQRPSGIPERISGSNSGNTATLTISGTQAVDEAEYYCQTWAPDVLLFGSGTKVTVL | 0.185 | 0.000192 | 1.04e+06 | – | Kd [1]: 0.571 nM; koff [1]: 0.000646 s⁻¹; kon [1]: 1.14e+06 M⁻¹ s⁻¹
18 | 141LO0002 hIgG1 ngl-2 (anti-PAD2) Fab (Fab, V domains shown) VH: not shown VL: SYVLTQPPSVSVSPGQTASITCSGDKVGDKYVSWYQQKPGQAPVLVMYQDSQRPSGIPERISGSNSGNTATLTISGTQAVDEAEYYCEVGVDYEYVFGSGTKVTVL | – | – | – | 3.78 | –
19 | 141LO0030 hIgG1 ngl-2 (Fab, V domains shown, Anti-PAD2; tested as Fab) VH: not shown VL: SYVLTQPPSVSVSPGQTASITCSGDKVGDKYVSWYQQKPGQAPVLVMYQDSQRPSGIPERISGSNSGNTATLTISGTQAVDEAEYYCQTWYDDALTFGSGTKVTVL | 0.949 | 0.000613 | 647000 | – | –
20 | 141LO0030 hIgG1 ngl-2 (anti-PAD2) Fab (Fab, V domains shown, Tested as Fab) VH: not shown VL: SYVLTQPPSVSVSPGQTASITCSGDKVGDKYVSWYQQKPGQAPVLVMYQDSQRPSGIPERISGSNSGNTATLTISGTQAVDEAEYYCQTWYDDALTFGSGTKVTVL | – | – | – | 0.949 | –
21 | 141LO0002 hIgG1 ngl-2 (Fab, V domains shown) VH: not shown VL: SYVLTQPPSVSVSPGQTASITCSGDKVGDKYVSWYQQKPGQAPVLVMYQDSQRPSGIPERISGSNSGNTATLTISGTQAVDEAEYYCEVGVDYEYVFGSGTKVTVL | 3.78 | 0.00328 | 880000 | – | –
22 | 141LO0055 hIgG1 ngl-2 (Fab, V domains shown, Anti-PAD2; tested as Fab) VH: not shown VL: SYVLTQPPSVSVSPGQTASITCSGDKVGDKYVSWYQQKPGQAPVLVMYQDSQRPSGIPERISGSNSGNTATLTISGTQAVDEAEYYCQSENAVEYVFGSGTKVTVL | 0.364 | 0.000675 | 1.85e+06 | – | –
23 | 141LO0039 hIgG1 ngl-2 (anti-PAD2) Fab (Fab, V domains shown, Tested as Fab) VH: not shown VL: SYVLTQPPSVSVSPGQTASITCSGDKVGDKYVSWYQQKPGQAPVLVMYQDSQRPSGIPERISGSNSGNTATLTISGTQAVDEAEYYCHTYAEDEYVFGSGTKVTVL | – | – | – | 1.87 | –
24 | 141LO0055 hIgG1 ngl-2 (anti-PAD2) Fab (Fab, V domains shown, Tested as Fab) VH: not shown VL: SYVLTQPPSVSVSPGQTASITCSGDKVGDKYVSWYQQKPGQAPVLVMYQDSQRPSGIPERISGSNSGNTATLTISGTQAVDEAEYYCQSENAVEYVFGSGTKVTVL | – | – | – | 0.364 | –
